Data reported in publication doi:10.1101/2021.08.07.455519 (bioRxiv, 2021).

Biological target: BG505 UFO trimer (HIV-1 strain BG505, UniProt Q2N0S6, stabilised)
Experiment: BLI

B1: intermediate antibody IA5 of the J038 lineage (antibody, V domains shown)
VH: QLRLQESGPGLVKPSETLSLNCAVSGGSISDAYWSWIRQSPGRGLEWIGRISGRDGYTDYNPSLTSRVTISTDRSKTQVSLRLTSVTAADTAVYFCAREVAEDDYGYYQPYFDSWGQGVLVTVSS
VL: DIQMTQSPSSVSASVGDRVTITCRSSQGIDTDLAWYQHTPGKAPKLLIYHSCGLQSGVPSRFSGSGSGTDFTLTISSLQPEDFATYYCQQYKSLPLTFGGGTKVEVK
binding result: binds
